The record followed here is the supplement of paper PMC7877785.

± gives the uncertainty stated by the source.

The data set is described as follows: self-splicing fitness, log relative to wild type (ln ratio); higher = more splicing; Tetrahymena group I intron in knt gene, E. coli kanamycin selection, DiMSum; sequences stand for … in CUCUCU…GGAGGGAAAAGUUAUCAGGCAUGCACCUGGUAGCUAGUCUUUAAACCAAUAGAUUGCAUCGGUUUAAAAGGCAAGACCGUCAAAUUGCGGGAAAGGGGUCAACAGCCGUUCAGUACCAAGUCUCAGGGGAAACUUUGAGAUGGCCUUGCAAAGGGUAUGGUAAUAAGCUGACGGACAUGGUCCUAACCACGCAGCCAAGUCCUAAGUCAACAGAUCUUCUGUUGAUAUGGAUGCAGUUCACAGACUAAAUGUCGGUCGGGGAAGAUGUAUUCUUCUCAUAAGAUAUAGUCGGACCUCUCCUUAAUGGGAGCUAGCGGAUGAAGUGAUGCAACACUGGAGCCGCUGGGAACUAAUUUGUAUGCGAAAGUAUAUUGAUUAGUUUUGGAGUACUCGUGGUCG
The gist of the method: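 The eight P1ex-region nucleotides of an intron in the knt kanamycin-resistance gene on pET-22b(+) were all randomised and the library put into E. coli BL21(DE3). Six replicate transformations were grown overnight at 37°C or 30°C on LB agar with or without 25 μg/mL kanamycin, together with 100 μg/mL carbenicillin, 50 μM IPTG and 0.2% rhamnose. Colonies were pooled and amplicon-sequenced on an Illumina HiSeq 2500. Fitness from DiMSum is the error-weighted combination of wild-type-normalised replicate fold changes, kanamycin over none.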

Consider GUACAGCAAUAUUACGCCUG, for which the “self-splicing fitness (ln)” value is -2.24 ± 0.25 (30 °C) and -0.634 ± 0.19 (37 °C). On the same counts, the results for CAGGAGCAAUAUUACGUAAC are -3.33 ± 0.26 and -2.74 ± 0.32. On the same counts, the results for CUUGAGCAAUAUUACGCAGG are -3.46 ± 0.25 and -3.55 ± 0.35. Taken in the same sequence, the figures for CGACAGCAAUAUUACGCACA were -0.429 ± 0.17 and 0.097 ± 0.17. With AGGUAGCAAUAUUACGCCCC, the “self-splicing fitness (ln)” value is -1.92 ± 0.044 (30 °C) and -1.56 ± 0.063 (37 °C).

As to UCUCAGCAAUAUUACGACCC, the “self-splicing fitness (ln)” value (37 °C) is -1.98 ± 0.23.

As for AGUAAGCAAUAUUACGGUUU, the “self-splicing fitness (ln)” value is -1.45 ± 0.092 (30 °C) and -0.554 ± 0.11 (37 °C).

Regarding UAACAGCAAUAUUACGUCUC, the “self-splicing fitness (ln)” value is -3.01 ± 0.12 (30 °C) and -3.02 ± 0.2 (37 °C). Taken in the same sequence, the figures for GUGUAGCAAUAUUACGAUGC were -1.85 ± 0.16 and -0.552 ± 0.18. As for CUGCAGCAAUAUUACGUAAU, the “self-splicing fitness (ln)” value is -4.74 ± 0.2 (30 °C) and -2.04 ± 0.16 (37 °C). Regarding GGAAAGCAAUAUUACGUAUU, the “self-splicing fitness (ln)” value runs as follows: (30 °C) -1.25 ± 0.13; (37 °C) -1.45 ± 0.16. Consider GCGGAGCAAUAUUACGCAGC, for which the “self-splicing fitness (ln)” value was -1.9 ± 0.35 (30 °C) and -2.35 ± 0.34 (37 °C). Take AGUAAGCAAUAUUACGGAUC: the “self-splicing fitness (ln)” value runs as follows: (30 °C) -1.39 ± 0.12; (37 °C) -1.31 ± 0.1. In the case of CAGAAGCAAUAUUACGCGAU, the “self-splicing fitness (ln)” value by setting is: (30 °C) -4.46 ± 0.32; (37 °C) -2.59 ± 0.21. Take AGCUAGCAAUAUUACGCAGA: the “self-splicing fitness (ln)” value was -3.4 ± 0.34 (30 °C) and -1.82 ± 0.18 (37 °C). As to UCGCAGCAAUAUUACGAAGA, the “self-splicing fitness (ln)” value was -2.23 ± 0.13 (30 °C) and -1.43 ± 0.15 (37 °C). Taken in the same sequence, the figures for UUCUAGCAAUAUUACGUCGU were -3.47 ± 0.26 and -2.19 ± 0.17. On the same counts, the results for CGACAGCAAUAUUACGGCUC are -2.5 ± 0.11 and -1.89 ± 0.14. As to ACCUAGCAAUAUUACGUCGA, the “self-splicing fitness (ln)” value by setting is: (30 °C) -2.29 ± 0.093; (37 °C) -0.834 ± 0.091. On the same counts, the results for ACUUAGCAAUAUUACGACGA are -0.777 ± 0.089 and -0.322 ± 0.088.

Regarding CUACAGCAAUAUUACGAGAA, the “self-splicing fitness (ln)” value is, setting by setting: (30 °C) -2.84 ± 0.46; (37 °C) -1.92 ± 0.28. Taken in the same sequence, the figures for AGCCAGCAAUAUUACGACUC were -4.9 ± 0.46 and -2.49 ± 0.27. Taken in the same sequence, the figures for AUUGAGCAAUAUUACGUAAG were -2.78 ± 0.13 and -1.82 ± 0.13.

Consider CAAUAGCAAUAUUACGAUUG, for which the “self-splicing fitness (ln)” value is -3.32 ± 0.17 (30 °C) and -1.9 ± 0.16 (37 °C).

As to GCAAAGCAAUAUUACGCCAA, the “self-splicing fitness (ln)” value is, setting by setting: (30 °C) -2.08 ± 0.48; (37 °C) -2.95 ± 0.31. On the same counts, the results for GUAUAGCAAUAUUACGGAUG are -2.65 ± 0.39 and -1.99 ± 0.25.

Regarding GAUGAGCAAUAUUACGGUUC, the “self-splicing fitness (ln)” value was -4.06 ± 0.33 (30 °C) and -2.32 ± 0.35 (37 °C).

As for CUCAAGCAAUAUUACGAUCA, the “self-splicing fitness (ln)” value reads like this: (30 °C) -1.3 ± 0.3; (37 °C) -1.09 ± 0.2. For the sequence CCGUAGCAAUAUUACGAUAC, where the note is “30 °C”, the “self-splicing fitness (ln)” value was -3.22 ± 0.24. Regarding CCGCAGCAAUAUUACGGCUU, the “self-splicing fitness (ln)” value reads like this: (30 °C) -4.44 ± 0.27; (37 °C) -2.45 ± 0.21. For AAAUAGCAAUAUUACGGCAU, the “self-splicing fitness (ln)” value by setting is: (30 °C) -0.403 ± 0.093; (37 °C) -0.183 ± 0.13. CUACAGCAAUAUUACGUUUG: the “self-splicing fitness (ln)” value is -0.766 ± 0.04 (30 °C) and -0.34 ± 0.06 (37 °C). Taken in the same sequence, the figures for AUAAAGCAAUAUUACGGGAG were -1.52 ± 0.11 and -1.23 ± 0.14.

Consider UAUAAGCAAUAUUACGCCAA, for which the “self-splicing fitness (ln)” value reads like this: (30 °C) -1.14 ± 0.29; (37 °C) -0.0916 ± 0.42. As for GAACAGCAAUAUUACGGCAC, the “self-splicing fitness (ln)” value runs as follows: (30 °C) -0.296 ± 0.083; (37 °C) -0.0202 ± 0.1.

As for UUCAAGCAAUAUUACGUCUG, the “self-splicing fitness (ln)” value runs as follows: (30 °C) -3.08 ± 0.24; (37 °C) -1.46 ± 0.14.

On to GCACAGCAAUAUUACGGCGU, for which the “self-splicing fitness (ln)” value was -0.386 ± 0.061 (30 °C) and 0.414 ± 0.079 (37 °C). Taken in the same sequence, the figures for UGCAAGCAAUAUUACGUGUU were -2.22 ± 0.072 and -1.52 ± 0.098. On the same counts, the results for GUCAAGCAAUAUUACGCAUG are -4.62 ± 0.34 and -2.33 ± 0.17. Taken in the same sequence, the figures for UACAAGCAAUAUUACGUUCA were -0.621 ± 0.052 and -0.478 ± 0.069.

As for UGCAAGCAAUAUUACGUUAU, the “self-splicing fitness (ln)” value runs as follows: (30 °C) -3.76 ± 0.15; (37 °C) -1.3 ± 0.1. Taken in the same sequence, the figures for AAAAAGCAAUAUUACGGAGG were -3.71 ± 0.21 and -2.94 ± 0.2.

For the sequence ACGCAGCAAUAUUACGGACA, the “self-splicing fitness (ln)” value is, setting by setting: (30 °C) -1.29 ± 0.13; (37 °C) -1.13 ± 0.14. In the case of GUCAAGCAAUAUUACGCACG, the “self-splicing fitness (ln)” value is -1.96 ± 0.13 (30 °C) and -1.49 ± 0.19 (37 °C). On the same counts, the results for GAAUAGCAAUAUUACGAAAU are -1.3 ± 0.1 and -1.6 ± 0.13. With CCCGAGCAAUAUUACGAUGU, the “self-splicing fitness (ln)” value is -3.46 ± 0.25 (30 °C) and -2.13 ± 0.27 (37 °C). Taken in the same sequence, the figures for UUGAAGCAAUAUUACGGAAG were -1.12 ± 0.14 and -0.383 ± 0.2. On to CGUAAGCAAUAUUACGUGCA, for which the “self-splicing fitness (ln)” value was -0.906 ± 0.086 (30 °C) and 0.102 ± 0.096 (37 °C). For the sequence AGAGAGCAAUAUUACGACGG, the “self-splicing fitness (ln)” value (30 °C) is -3.4 ± 0.28. Take GGAUAGCAAUAUUACGGCAG: the “self-splicing fitness (ln)” value (37 °C) is -2.18 ± 0.22. In the case of CCAGAGCAAUAUUACGUAAC, the “self-splicing fitness (ln)” value runs as follows: (30 °C) -3.56 ± 0.37; (37 °C) -1.96 ± 0.32.

Regarding CUGUAGCAAUAUUACGUGAG, the “self-splicing fitness (ln)” value is -1.31 ± 0.072 (30 °C) and -0.935 ± 0.096 (37 °C). As for GAACAGCAAUAUUACGGACG, the “self-splicing fitness (ln)” value was -1.88 ± 0.11 (30 °C) and -0.3 ± 0.12 (37 °C). Consider CUGCAGCAAUAUUACGAGAC, for which the “self-splicing fitness (ln)” value is, setting by setting: (30 °C) -2.19 ± 0.16; (37 °C) -1.31 ± 0.16. On the same counts, the results for CUGAAGCAAUAUUACGAUAA are -2.51 ± 0.25 and -2.06 ± 0.29. On the same counts, the results for CAGUAGCAAUAUUACGUCCG are -0.245 ± 0.24 and 1.29 ± 0.42. As for GCAAAGCAAUAUUACGCGGG, the “self-splicing fitness (ln)” value was -3.11 ± 0.21 (30 °C) and -2.41 ± 0.21 (37 °C).

With UUCUAGCAAUAUUACGGCCG, the “self-splicing fitness (ln)” value reads like this: (30 °C) -1.96 ± 0.14; (37 °C) -1.56 ± 0.16.

On to UCGCAGCAAUAUUACGUACA, for which the “self-splicing fitness (ln)” value was -1.62 ± 0.15 (30 °C) and -0.509 ± 0.12 (37 °C).

CAUUAGCAAUAUUACGUAUU: the “self-splicing fitness (ln)” value is, setting by setting: (30 °C) -4.04 ± 0.4; (37 °C) -2.37 ± 0.27. Taken in the same sequence, the figures for AAUCAGCAAUAUUACGUCGC were -2.06 ± 0.17 and -1.24 ± 0.17.
